In patent US20180244758A1 (MAPP BIOPHARMACEUTICAL, published 2018):
Where a chain is given by its changes, count along the chain named. In names and notes the source's numbering stands.

T1: SUDV GP on rVSV particles (Sudan virus (SUDV), UniProt Q66814 33-676)
T1 sequence: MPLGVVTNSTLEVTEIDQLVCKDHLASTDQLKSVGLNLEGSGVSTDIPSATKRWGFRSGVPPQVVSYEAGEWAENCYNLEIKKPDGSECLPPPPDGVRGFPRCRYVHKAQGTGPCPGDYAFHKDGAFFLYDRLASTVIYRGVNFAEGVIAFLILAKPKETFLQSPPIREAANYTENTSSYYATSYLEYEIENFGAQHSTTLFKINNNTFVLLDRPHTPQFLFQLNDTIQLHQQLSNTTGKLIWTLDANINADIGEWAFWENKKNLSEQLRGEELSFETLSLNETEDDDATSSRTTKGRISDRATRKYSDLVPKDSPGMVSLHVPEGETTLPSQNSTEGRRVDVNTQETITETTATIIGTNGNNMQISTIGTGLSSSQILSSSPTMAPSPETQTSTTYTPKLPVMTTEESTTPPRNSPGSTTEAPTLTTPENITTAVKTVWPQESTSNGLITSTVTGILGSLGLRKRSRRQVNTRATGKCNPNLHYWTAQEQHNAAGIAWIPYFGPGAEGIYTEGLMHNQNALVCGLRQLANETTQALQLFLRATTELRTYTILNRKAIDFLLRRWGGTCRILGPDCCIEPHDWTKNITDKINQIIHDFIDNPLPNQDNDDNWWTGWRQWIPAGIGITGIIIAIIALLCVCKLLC

T2: TAFV GP on VSV pseudotype particles (Tai Forest virus (TAFV), UniProt Q66810 33-676)
T2 sequence: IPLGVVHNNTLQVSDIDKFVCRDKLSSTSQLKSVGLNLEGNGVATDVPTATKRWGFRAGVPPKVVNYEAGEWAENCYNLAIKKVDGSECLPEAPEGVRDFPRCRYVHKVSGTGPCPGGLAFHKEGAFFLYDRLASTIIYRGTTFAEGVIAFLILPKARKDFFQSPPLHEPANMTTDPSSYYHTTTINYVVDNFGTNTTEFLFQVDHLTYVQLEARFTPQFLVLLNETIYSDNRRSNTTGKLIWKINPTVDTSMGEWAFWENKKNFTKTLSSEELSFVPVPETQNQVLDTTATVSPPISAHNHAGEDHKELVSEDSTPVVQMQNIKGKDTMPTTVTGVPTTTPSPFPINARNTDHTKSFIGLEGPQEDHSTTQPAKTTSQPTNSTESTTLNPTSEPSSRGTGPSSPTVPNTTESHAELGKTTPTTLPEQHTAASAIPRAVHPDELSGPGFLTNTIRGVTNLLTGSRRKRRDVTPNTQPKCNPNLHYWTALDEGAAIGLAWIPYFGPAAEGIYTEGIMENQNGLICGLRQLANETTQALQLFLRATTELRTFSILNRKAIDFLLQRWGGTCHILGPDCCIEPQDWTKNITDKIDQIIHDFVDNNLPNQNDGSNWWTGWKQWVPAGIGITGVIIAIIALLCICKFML

T3: RESTV GP on rVSV particles (Reston virus (RESTV), UniProt Q66799 34-677)
T3 sequence: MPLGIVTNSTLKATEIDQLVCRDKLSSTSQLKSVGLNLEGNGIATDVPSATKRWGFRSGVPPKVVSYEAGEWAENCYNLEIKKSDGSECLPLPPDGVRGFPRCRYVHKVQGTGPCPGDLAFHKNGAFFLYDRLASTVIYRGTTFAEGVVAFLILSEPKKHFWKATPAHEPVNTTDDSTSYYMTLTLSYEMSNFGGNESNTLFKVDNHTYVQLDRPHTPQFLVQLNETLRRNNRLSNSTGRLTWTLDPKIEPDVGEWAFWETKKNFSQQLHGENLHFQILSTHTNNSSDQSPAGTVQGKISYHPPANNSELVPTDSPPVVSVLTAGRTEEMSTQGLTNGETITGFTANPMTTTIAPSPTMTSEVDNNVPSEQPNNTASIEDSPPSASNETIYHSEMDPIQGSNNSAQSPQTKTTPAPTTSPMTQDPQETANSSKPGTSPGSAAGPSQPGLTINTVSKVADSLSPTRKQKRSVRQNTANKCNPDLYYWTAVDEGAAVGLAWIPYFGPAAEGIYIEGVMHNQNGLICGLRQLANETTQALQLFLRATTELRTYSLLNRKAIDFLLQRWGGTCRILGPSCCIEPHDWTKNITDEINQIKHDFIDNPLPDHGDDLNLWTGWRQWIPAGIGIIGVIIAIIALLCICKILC

T4: EBOV GP on rVSV particles (Ebola virus (EBOV), UniProt Q05320 33-676)
T4 sequence: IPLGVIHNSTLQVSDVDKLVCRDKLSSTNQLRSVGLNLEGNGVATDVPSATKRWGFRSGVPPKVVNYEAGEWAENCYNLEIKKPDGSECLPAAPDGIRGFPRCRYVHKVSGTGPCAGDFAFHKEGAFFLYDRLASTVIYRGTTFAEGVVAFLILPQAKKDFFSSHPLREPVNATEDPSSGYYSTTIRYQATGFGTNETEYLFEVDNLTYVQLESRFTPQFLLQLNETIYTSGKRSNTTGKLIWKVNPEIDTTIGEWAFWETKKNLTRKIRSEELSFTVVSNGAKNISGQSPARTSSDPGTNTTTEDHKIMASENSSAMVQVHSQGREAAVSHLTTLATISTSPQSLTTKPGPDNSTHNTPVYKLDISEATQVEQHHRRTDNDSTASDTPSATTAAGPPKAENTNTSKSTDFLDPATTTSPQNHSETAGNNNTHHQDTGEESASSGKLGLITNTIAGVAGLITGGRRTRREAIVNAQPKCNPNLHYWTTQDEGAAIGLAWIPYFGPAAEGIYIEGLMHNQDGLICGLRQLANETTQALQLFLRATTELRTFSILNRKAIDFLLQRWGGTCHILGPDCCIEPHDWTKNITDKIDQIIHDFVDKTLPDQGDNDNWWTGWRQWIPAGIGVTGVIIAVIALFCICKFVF

B1: PE-87 H100A (antibody, V domains shown)
VH: QVQLVQSGVTLVQPGGSLRVSCAASGFTFSSYAMSWVRQAPGKGLEWVSAISGLGGSTYYADSVKGRFTISRDNSKNTLYLQMNSLRAEDTAVYYCAKDARVWAAGYHFDYWGQGALVTVSS
VL: DIVLTQSPSTLSASVGDRVTITCRASQSISSWLAWYQQKPGEAPKLLISDASSLESGVPSRFSGSGSGTEFTLTISSLQPDDFATYYCQQYYSSPTFGGGTKVEIK
B2: PE-87 R101A (antibody, V domains shown)
VH: B1 VH with A100H, R101A
VL: B1 VL
B3: PE-87 V102A (antibody, V domains shown)
VH: B1 VH with A100H, V102A
VL: B1 VL
B4: PE-87 G106A (antibody, V domains shown)
VH: B1 VH with A100H, G106A
VL: B1 VL
B5: PE-87 Y107A (antibody, V domains shown)
VH: B1 VH with A100H, Y107A
VL: B1 VL
B6: PE-87 H108A (antibody, V domains shown)
VH: B1 VH with A100H, H108A
VL: B1 VL
B7: PE-87 F109A (antibody, V domains shown)
VH: B1 VH with A100H, F109A
VL: B1 VL
B8: PE-87 D110A (antibody, V domains shown)
VH: B1 VH with A100H, D110A
VL: B1 VL
B9: PE-87 Y111A (antibody, V domains shown)
VH: B1 VH with A100H, Y111A
VL: B1 VL
B10: PE-87 D99A (antibody, V domains shown)
VH: B1 VH with D99A, A100H
VL: B1 VL
B11: PE-87 W103A (antibody, V domains shown)
VH: B1 VH with A100H, W103A
VL: B1 VL

What follows are binders tested against T1, SUDV GP on rVSV particles (assay: cell-based or functional assay).
For B1, the “IC50 (nM), neutralization of rVSV-GP” value was 1 nM. B2 was tested, and the “IC50 (nM), neutralization of rVSV-GP” value was 1.5 nM. For B3, the “IC50 (nM), neutralization of rVSV-GP” value was 1.1 nM. B4 was tested, and the “IC50 (nM), neutralization of rVSV-GP” value was 0.9 nM. For B5, the “IC50 (nM), neutralization of rVSV-GP” value was over 350 nM. B6 was tested, and the “IC50 (nM), neutralization of rVSV-GP” value was 2.1 nM. With B7 the “IC50 (nM), neutralization of rVSV-GP” value was 2.1 nM. In the case of B8, the “IC50 (nM), neutralization of rVSV-GP” value is reported as 1.5 nM. With B9 the “IC50 (nM), neutralization of rVSV-GP” value was 0.8 nM.

These binders were tested against T2, TAFV GP on VSV pseudotype particles (assay: cell-based or functional assay).
In the case of B10, the “IC50 (nM), neutralization of rVSV-GP” value is reported as over 350 nM. B1 was tested, and the “IC50 (nM), neutralization of rVSV-GP” value was 0.8 nM. With B2 the “IC50 (nM), neutralization of rVSV-GP” value was 1.9 nM. B3 was tested, and the “IC50 (nM), neutralization of rVSV-GP” value was 1 nM. B11 was tested, and the “IC50 (nM), neutralization of rVSV-GP” value was over 150 nM. For B4, the “IC50 (nM), neutralization of rVSV-GP” value was 0.8 nM. For B5, the “IC50 (nM), neutralization of rVSV-GP” value was 0.8 nM. B6 was tested, and the “IC50 (nM), neutralization of rVSV-GP” value was 2.2 nM. In the case of B7, the “IC50 (nM), neutralization of rVSV-GP” value is reported as 2.8 nM. With B8 the “IC50 (nM), neutralization of rVSV-GP” value was 2.1 nM. In the case of B9, the “IC50 (nM), neutralization of rVSV-GP” value is reported as 1.1 nM.

The binders below were run against T3, RESTV GP on rVSV particles (assay: cell-based or functional assay).
With B1 the “IC50 (nM), neutralization of rVSV-GP” value was 0.2 nM. B2 was tested, and the “IC50 (nM), neutralization of rVSV-GP” value was 0.2 nM. For B3, the “IC50 (nM), neutralization of rVSV-GP” value was 0.2 nM. With B4 the “IC50 (nM), neutralization of rVSV-GP” value was 0.2 nM. B5 was tested, and the “IC50 (nM), neutralization of rVSV-GP” value was 1.3 nM. For B6, the “IC50 (nM), neutralization of rVSV-GP” value was 0.5 nM. For B7, the “IC50 (nM), neutralization of rVSV-GP” value was 0.4 nM. In the case of B8, the “IC50 (nM), neutralization of rVSV-GP” value is reported as 0.4 nM. With B9 the “IC50 (nM), neutralization of rVSV-GP” value was 0.1 nM.

What follows are binders tested against BDBV GP on rVSV particles (Bundibugyo virus (BDBV)) (assay: cell-based or functional assay).
With B1 the “IC50 (nM), neutralization of rVSV-GP” value was 0.4 nM. B2 was tested, and the “IC50 (nM), neutralization of rVSV-GP” value was 0.4 nM. For B3, the “IC50 (nM), neutralization of rVSV-GP” value was 0.2 nM. B11 was tested, and the “IC50 (nM), neutralization of rVSV-GP” value was over 200 nM. In the case of B4, the “IC50 (nM), neutralization of rVSV-GP” value is reported as 0.4 nM. For B5, the “IC50 (nM), neutralization of rVSV-GP” value was 0.8 nM. B6 was tested, and the “IC50 (nM), neutralization of rVSV-GP” value was 0.6 nM. With B7 the “IC50 (nM), neutralization of rVSV-GP” value was 0.3 nM. In the case of B8, the “IC50 (nM), neutralization of rVSV-GP” value is reported as 0.9 nM. With B9 the “IC50 (nM), neutralization of rVSV-GP” value was 0.4 nM.

The binders below were run against T4, EBOV GP on rVSV particles (assay: cell-based or functional assay).
In the case of B10, the “IC50 (nM), neutralization of rVSV-GP” value is reported as over 500 nM. For B1, the “IC50 (nM), neutralization of rVSV-GP” value was 1 nM. For B2, the “IC50 (nM), neutralization of rVSV-GP” value was 3.2 nM. In the case of B3, the “IC50 (nM), neutralization of rVSV-GP” value is reported as 0.6 nM. B4 was tested, and the “IC50 (nM), neutralization of rVSV-GP” value was 0.8 nM. In the case of B5, the “IC50 (nM), neutralization of rVSV-GP” value is reported as 3 nM. For B6, the “IC50 (nM), neutralization of rVSV-GP” value was 3.2 nM. For B7, the “IC50 (nM), neutralization of rVSV-GP” value was 4.2 nM. In the case of B8, the “IC50 (nM), neutralization of rVSV-GP” value is reported as 2 nM. In the case of B9, the “IC50 (nM), neutralization of rVSV-GP” value is reported as 0.8 nM.
